These results are taken from the DeepSol protein solubility set.

The nature of this data set: soluble on expression in E. coli; label from the status in PepcDB or PDB records.
For “MDKEIKICPRCEQGYLYHAKPKYFSGEVILCDECYAMWLGDMKIFYGQYGKDFYDYHEFMKDKGIEEINMWEGELFDHPYYEDEKFK”, the “soluble on expression in E. coli” value is reported as “not soluble”.
“MDLEEQKKAVIEKLIREGYIKSKRVIDALLKVPREEFLPEHLKEYAYVDTPLEIGYGQTISAIHMVGMMCELLDLKPGMKVLEIGTGCGYHAAVTAEIVGEDGLVVSIERIPELAEKAERTLRKLGYDNVIVIVGDGTLGYEPLAPYDRIYTTAAGPKIPEPLIRQLKDGGKLLMPVGRYLQRLVLAEKRGDEIIIKDCGPVAFVPLVGKEGFQG”: the “soluble on expression in E. coli” value is “soluble”.
The value for “MDLHADSLDGTRSGPGLPTSDTKASFEAHVREKFNRMVEAVDRTVEKRIDKLTKELAQKTAELLEVRAAFVQLTQKKQEVQRRERALNRQVDVAVEMIAVLRQRLTESEEELLRKEEEVVTFNHFLEAAAEKEVQGKARLQDFIENLLQRVELAEKQLEYYQSQQASGFVRDLSGHVLTDISSNRKPKCLSRGHPHSVCNHPDLKSHFHPKGRNHLKKAKDDRASMQPAKAIHEQAESSRDLCRPPKKGELLGFGRKGNIRPKMAKKKPTAIVNII” was “not soluble”; that for “MDLMSFKEKEISKKDCLELFEDTENFFDVIKLADSIRKDIVGDTVTYVVNANINFTNVCSGTCKFCAFKAEHGDPNAFFLNPDEVAKKALEARKIGATEVCIQGGLLKEIDTYFQAEILKKVKKITEPYEEIVVHAFSPMEVKSAAENAGLSVNEALKILKENGLNSMPGTAAEILNDEIRSEICPTKLKTSEWIDVVTNAHKTGIKTTCTMMYGHIEENKHLAEHLSILRKIQKETGGFTEFVPLTFLHENAPLHHMERVKSGASGMLDLKTYAISRIFFKDYIKNIQTSWVKLGTKLSQVSLNCGANDIGGTLMEESISKAAGGSYGTFMSEEKLKDMILAVGRIPKQRNTAYEIIE” was “not soluble”.
Consider “MDLNVKQSGIHSVALHTTYFQNRSGKVYKRAEERYLRNDLSCGLAQCGTCKDFGTNPLLKIENPVRNAKVGRHALIVDSTSLIRFYDLFDSSLLRDLIVTQTVWEGVKAKAVPAYKKMNSLCYEDAKDRFHVFMNEFHCETFSESSKFEDLSRGEELLLSTALYLKTHWQKHNVAPVVLVFDEDSKKRMENHYQHVMYLKEYIQNLEDPGKQALLDQMAAYESSGNGNEKQIFDEYLSHDRIMEGIASGTIKRGNFSVSRENYREATVIIDDQLTSWFITGNNCNRAVNGDTVAVQLLPEDQWTAPEKKIRLRDVEEYVKTADDMGNEDEENDDENDEPKAKKSKKMTVSTAKVVGIIKRNWREYCGMLLPSTVKGARRHLFCPAERLIPRIRIETEQAETLSQQRIVVAIDHWPRDSKYPLGHYVRSIGEMGSRETENEVLLLEHDIPHAPFSESVLDCLPREEWEPDLTENRGPLPRVDLRDLTICSVDPLGCTDIDDALHCKQIGEDLFEVGVHIADVTHFVRPGTAIDDEAALRGTTVYLCDRRIDMLPCLLSSNLCSLRGEEERYAFSCIWTMTSSADIQSVKYHKSLIKSKAALTYEKAQEIIDDPKEQNDVALGLRGLMKLSKVLNARRTGNGALTLASSEVRFDMDWESRTPKKVMEKQHLDTHSMVEEFMLLANISVAEKILEEYPDCALLRRHPVPLKESYKPLVEAARHRGFEIIVESGKGLADSLNRCVDKKNPMLNRLLRMLTTRCMTQAVYFSAGKDGFSDIKLEEKKFFVLKTLNLPYRSCLCDDTETSIHLSRGLNDYFLFKKEKLHMSVGVLFKLFDCLGTVPVPQYQHFGLACAIYTHFTSPIRRYADVIVHRLLAAAIGADDIQSGLLNQARCTKICTNINYRHKQAQYAGRASVQLNVVRYFKGKVETCEGFVMGVRNNGIQVFVPKYGLESIIVLQTSAASGTTIDVEEMSVKVNGDVVIKELEPVTVRISVNEKNQQRPRVELQLIKPAIPGLSVDFDLSSSEGLGL”, for which the “soluble on expression in E. coli” value is listed as “not soluble”.
Turning to “MDLRTANVTRYILPLREGGSLPALAEADDEFKYVVKFRGAGHGTKALIAELIGGEIARTLGFRVPEIIFLNLDEAFGRTEADEEIQDLLQWSRGLNIGLHFLSGALTFDPVVHQVDGKTASQIVWMDAFLTNVDRTIKNTNMLMWHKELWLIDHGASLYFQHSWTNWQKQALTPFVQIKDHVLLPFADQLKETDMAFRQLLTSDKIWEIVNTVPDDWLNWTEGQETPQDLRDIYIQFLEERIKHSELFVNEAQHARKALI”, the “soluble on expression in E. coli” value is reported as “not soluble”.
The value for “MDLSRINTWKSKQLKSFLSSKDAFKADINGHSVLYYAIADNNVRLVCTLLNAGALKNLLDNEFPLHQAATLEDTKIVKILLFSGMDDSQFDDKGNTALYYAVDSGNMQTVKLFVKKNWRLMFYGKTGWKTSFYHAVMLNDVSIVSYFLSEIPSPFDLAILLSCIHTTIKNGHVDMMILLLDYMTSTNTNSLLFIPDIKLAIDNKDIEMLQALFKYDINIYSVNLENVLLDDAEIAKMIIEKHVEYKSDSYTKDLDDVKNNKLDEIISKNEELRLMYVNYVRKNY” was “not soluble”; that for “MDLWLLANDESCLRHQAFWHSWQGPLVERQQSNNITLTDVLEGVHAYLQGHLDDFEIQEAFVTKELPLKLAQLRERWERYVVLNAELAARGRGGFERNRRDD” was “soluble”.
With “MDLYEKIKLLASEKKMSIRQLEETLGFGNGVINRWRKNTPGSDKLKKVADYFNISVDYLLGRTDNPNSNNLEEDEITTFFRVNTEDLTESEKDQLREELKEYLEFMKSRLKNK”, the “soluble on expression in E. coli” value is “soluble”.
As to “MDMLNTLRDTLSSVQAELSTGVEKLRMNVSANIVAQQKVSTESVNEILNTSAGNELLQNFQNLITEVEENGAEGGRLANLCSTRMGRCQQMCKEKADAVMEIDEFLRNSVEFDKKIREINAQISKLTRFCNQTEQAMTYLEALCEVAHTEGEVDLIRQQAKSAATIVQIECESPSVLTSALRSRPEDAVKAQQEEVMLEEFLSSKNMQLP”, the “soluble on expression in E. coli” value is recorded as “not soluble”.
As for “MDNARIDLRSKYYVKPKADHPWLTRRTQSHQQVKPPKLPKKKPDPDKKD”, the “soluble on expression in E. coli” value was “not soluble”.
For the sequence “MDNCLAAAALNGVDRRSLQRSAKLALEVLERAKRRAVDWHALERPKGCMGVLAREAPHLEKQPAAGPQRVLPGEREERPPTLSASFRTMAEFMDYTSSQCGKYYSSVPEEGGATHVYRYHRGESKLHMCLDIGNGQRKDRKKTSLGPGGSYQISEHAPEASQPAENISKDLYIEVYPGTYSVTVGSNDLTKKTHVVAVDSGQSVDLVFPVLEHHHHHH”, the “soluble on expression in E. coli” value is “soluble”.
Take “MDNKVILVGGFHEIIELCEDNDIEIAGIIDNYLTNDTYWGYPIIGTDDKAKVLFETYKNVPVLITPDVPHVRYKLYHYYKSIGFQVASLISRDASISRSAIIGEGTIIQRGANLSSNIKIGQMVKVNTNANIMHDCLIGNYVTVAPNAVLLGKVEIDDKAYIGANATLLPSVKIGENVTVGAGSVVTKSVRPNTVVKGSPLEHHHHHH”: the “soluble on expression in E. coli” value is listed as “soluble”.
In the case of “MDNTRIMAAREAGVKVEANVHNFNDRLSSKERIRFKHDGIEPQTWGEAIQLRIRKQETQKGVPEGWSKRFPNGSIYDVKVLRK”, the “soluble on expression in E. coli” value is on record as “not soluble”.
The value for “MDPLRAQQLAAELEVEMMADMYNRMTSACHRKCVPPHYKEAELSKGESVCLDRCVSKYLDIHERMGKKLTELSMQDEELMKRVQQSSGPA” was “soluble”; that for “MDQTIHHQIQQALHFRTAVRVYKEEKISDEDLALILDAAWLSPSSIGLEGWRFVVLDNKPIKEEIKPFAWGAQYQLETASHFILLIAEKHARYDSPAIKNSLLRRGIKEGDGLNSRLKLYESFQKEDMDMADNPRALFDWTAKQTYIALGNMMMTAALLGIDTCPIEGFHYDKVNHILAKHNVIDLEKEGIASMLSLGYRLRDPKHAQVRKPKEEVISVVK” was “soluble”; that for “MDRFDAMQAFARVVDTGSFTKAAETLHMSRTSVTQLVQQLEARLRVRLLNRTTRKLNLTADGAAYYERVVRLLAELDDAETSLSSAALAPRGRLRIDVPSPLARLLLIPALPEFHARYPEIQIDLGVSDRLVDLIDENVDCVIRGGELRDQSLMARRVGDLQLGVYAAPAYLQRAGVPSHPRELEDSHQRIVGFLWARTGKALPYAMRRGEECLRVAGRHVLAVDDGNAYLAAGLAGLGILWLPHYMAREPLARGELLPLFEDWSLEPMPLYLAFPPNRHVSGKLRVFIEWVAELIARHAPPLHPPL” was “not soluble”.
With “MDRISQLSDDLLLQILSFIPGKDVVATSLLSKRWQSLWMLVSELEYDDSYHTGDYKSFSQFVYRSLLSNNAPVIKHLHLNLGPDCPAIDIGLWIGFALTRRLRQLKINIRTSSNDASFSLPSSLYTSDTLETLRLINFVLLDVPSSVCLPSLKVLHLKTVDYEDDASLPSLLFGCPNLEELFVERHDQDLEMDVTFVVPSLRRLSMIDKNYGQCDRYVIDVPSLKYLNITDDAVYDVRQIENMPELVEAHVDITQGVTHKFLRALTSVRQLSLCLSLSEKQHESGLCGIETPIGWKLPSSVPECLLFSLEAFEWIGYKGRRGDREVATYVLKNAACLRTAKFSPESTDVGEKYHMLKELASVPTASTSSKLLFD”, the “soluble on expression in E. coli” value was “soluble”.
In the case of “MDRMYEQNQMPHNNEAEQSVLGSIIIDPELINTTQEVLLPESFYRGAHQHIFRAMMHLNEDNKEIDVVTLMDQLSTEGTLNEAGGPQYLAELSTNVPTTRNVQYYTDIVSKHALKRRLIQTADSIANDGYNDELELDAILSDAERRILELSSSRESDGFKDIRDVLGQVYETAEELDQNSGQTPGIPTGYRDLDQMTAGFNRNDLIILAARPSVGKTAFALNIAQKVATHEDMYTVGIFSLEMGADQLATRMICSSGNVDSNRLRTGTMTEEDWSRFTIAVGKLSRTKIFIDDTPGIRINDLRSKCRRLKQEHGLDMIVIDYLQLIQGSGSRASDNRQQEVSEISRTLKALARELECPVIALSQLSRGVEQRQDKRPMMSDIRESGSIEQDADIVAFLYRDDYYNRGGDEDDDDDGGFEPQTNDENGEIEIIIAKQRNGPTGTVKLHFMKQYNKFTDIDYAHADMM”, the “soluble on expression in E. coli” value is given as “not soluble”.
The value for “MDRPVRVLFVCLGNICRSPMAEGIFRKLLKERGLEDRFEVDSAGTGAWHVGEPMDPRARRVLEEEGAYFPHVARRLTREDVLAYDHILVMDRENLEEVLRRFPEARGKVRLVLEELGGGEVQDPYYGDLEDFRKVYWTLEAALQAFLDRHGSPSPAAEGRA” was “soluble”; that for “MDSADPQLNRFLQQLQAETQRQKFTEQVHTLTGRCWDVCFADYRPPSKMDGKTQTCIQNCVNRMIDASNFMVEHLSKMNGGHV” was “not soluble”; that for “MDTAGDTKTTDDGGVVNITYMHRLPDSEGMTLVNDIVAKWNKQHPDIQVKATKFDGKASDMIKKLETDVKSGEAPDLAQVGYAELPEVFTKGLLQDVTQYAEQYKNDFASGPYSLVQVGGKAYGLPQDTGPLVYFYNKAEFEKLGITEIPQTADEFIAAAKTAAAAGKYIMSYQPDEAGNMISGLAGASGGWYKVKGDSWVVNTETDGSKATADFYQQLLDAKAATTNPRWDPSFDASIKDGSLIGTVAAAWEAPLFMTSSGGTGSGEWQVAQLGDWFGNAGKTGPDGGSAVAVLKNSKHPKEAMEFLDWFNTQVPDLVSQGLVPAATTEDAETPSEWSTFFGGQDIMKEFKTANNNMGDFTYMPGFSAVAAKMNETAAKATDGSGKVADIFSDAQTTSVDTLKNFGLSVSE” was “soluble”.
